{
  "source": "patent US20260240959A1",
  "about": "“METHODS FOR IN VIVO EDITING OF KLKB1” (INTELLIA THERAPEUTICS, INC., priority 2022, published 2026)",
  "molecules": {"B1": {"name": "G013901: cynomolgus specific KLKB1 guide RNA (SEQ ID NO: 409); dosed as LNP formulation with Cas9 mRNA (nucleic acid)", "guide": "mG*mG*mA*rUrUrArCrArUrArUrGrGrGrArCrArCrArArGrUrUrUrUrArGrAmGmCmUmAmGmAmAmAmUmAmGmCrArArGrUrUrArArArArUrArArGrGrCrUrArGrUrCrCrGrUrUrArUrCrAmAmCmUmUmGmAmAmAmAmAmGmUmGmGmCmAmCmCmGmAmGmUmCmGmGmUmGmCmU*mU*mU*mU"}},
  "tested_on": "plasma kallikrein",
  "test": "Plasma kallikrein activity in cynomolgus monkeys",
  "assay_type": "in vivo, cynomolgus monkey",
  "conditions": "n=3",
  "method": "Cynomolgus monkeys were treated in cohorts of n=3. This study was conducted with LNP formulations according to Example 1. […]. Animals were dosed at 1.5, 3, or 6 mg per kg doses based on total RNA cargo. Indel formation (percent editing) was measured by NGS. Total kallikrein activity and plasma kallikrein protein level were measured as described above. […]",
  "note": "In the oligonucleotide strings, read from the 5' end, every base follows the letter of its sugar. An asterisk marks phosphorothioate; unmarked linkages are phosphodiester. Other units and linkages are bracketed, terminal groups are in braces. A string of capitals states the bases alone. m = 2'-O-methyl; r = 2'-OH (RNA)",
  "data": [
    {"molecule": "B1", "values": [
      {"measurement": "Kallikrein Activity (% of basal activity), Mean", "setting": "1.5 mpk, Day 14", "value": "31.1 % of basal activity"},
      {"measurement": "Kallikrein Activity (% of basal activity), Mean", "setting": "1.5 mpk, Day 28", "value": "26.8 % of basal activity"},
      {"measurement": "Kallikrein Activity (% of basal activity), Mean", "setting": "1.5 mpk, Day 42", "value": "19.8 % of basal activity"},
      {"measurement": "Kallikrein Activity (% of basal activity), Mean", "setting": "1.5 mpk, Day 56", "value": "8.8 % of basal activity"},
      {"measurement": "Kallikrein Activity (% of basal activity), Mean", "setting": "1.5 mpk, Day 70", "value": "6 % of basal activity"},
      {"measurement": "Kallikrein Activity (% of basal activity), Mean", "setting": "1.5 mpk, Day 84", "value": "10.6 % of basal activity"},
      {"measurement": "Kallikrein Activity (% of basal activity), Mean", "setting": "1.5 mpk, Day 105", "value": "23.3 % of basal activity"},
      {"measurement": "Kallikrein Activity (% of basal activity), Mean", "setting": "1.5 mpk, Day 119", "value": "12.2 % of basal activity"},
      {"measurement": "Kallikrein Activity (% of basal activity), Mean", "setting": "1.5 mpk, Day 147", "value": "11.9 % of basal activity"},
      {"measurement": "Kallikrein Activity (% of basal activity), Mean", "setting": "1.5 mpk, Day 161", "value": "21 % of basal activity"},
      {"measurement": "Kallikrein Activity (% of basal activity), Mean", "setting": "1.5 mpk, Day 180", "value": "19.2 % of basal activity"},
      {"measurement": "Kallikrein Activity (% of basal activity), Mean", "setting": "1.5 mpk, Day 238", "value": "16.6 % of basal activity"},
      {"measurement": "Kallikrein Activity (% of basal activity), Mean", "setting": "1.5 mpk, Day 252", "value": "19.1 % of basal activity"},
      {"measurement": "Kallikrein Activity (% of basal activity), Mean", "setting": "1.5 mpk, Day 266", "value": "13.9 % of basal activity"},
      {"measurement": "Kallikrein Activity (% of basal activity), Mean", "setting": "1.5 mpk, Day 280", "value": "17.5 % of basal activity"},
      {"measurement": "Kallikrein Activity (% of basal activity), Mean", "setting": "1.5 mpk, Day 294", "value": "17 % of basal activity"},
      {"measurement": "Kallikrein Activity (% of basal activity), Mean", "setting": "1.5 mpk, Day 308", "value": "18.2 % of basal activity"},
      {"measurement": "Kallikrein Activity (% of basal activity), Mean", "setting": "1.5 mpk, Day 326", "value": "13.3 % of basal activity"},
      {"measurement": "Kallikrein Activity (% of basal activity), Mean", "setting": "1.5 mpk, Day 333", "value": "15.9 % of basal activity"},
      {"measurement": "Kallikrein Activity (% of basal activity), Mean", "setting": "1.5 mpk, Day 347", "value": "16.9 % of basal activity"},
      {"measurement": "Kallikrein Activity (% of basal activity), Mean", "setting": "1.5 mpk, Day 365", "value": "24.1 % of basal activity"},
      {"measurement": "Kallikrein Activity (% of basal activity), Mean", "setting": "3 mpk, Day 7", "value": "42.8 % of basal activity"},
      {"measurement": "Kallikrein Activity (% of basal activity), Mean", "setting": "3 mpk, Day 14", "value": "15.9 % of basal activity"},
      {"measurement": "Kallikrein Activity (% of basal activity), Mean", "setting": "3 mpk, Day 28", "value": "10.6 % of basal activity"},
      {"measurement": "Kallikrein Activity (% of basal activity), Mean", "setting": "3 mpk, Day 42", "value": "8.6 % of basal activity"},
      {"measurement": "Kallikrein Activity (% of basal activity), Mean", "setting": "3 mpk, Day 56", "value": "3.4 % of basal activity"},
      {"measurement": "Kallikrein Activity (% of basal activity), Mean", "setting": "3 mpk, Day 70", "value": "3 % of basal activity"},
      {"measurement": "Kallikrein Activity (% of basal activity), Mean", "setting": "3 mpk, Day 84", "value": "4.2 % of basal activity"},
      {"measurement": "Kallikrein Activity (% of basal activity), Mean", "setting": "3 mpk, Day 105", "value": "6 % of basal activity"},
      {"measurement": "Kallikrein Activity (% of basal activity), Mean", "setting": "3 mpk, Day 119", "value": "3.4 % of basal activity"},
      {"measurement": "Kallikrein Activity (% of basal activity), Mean", "setting": "3 mpk, Day 147", "value": "4.5 % of basal activity"},
      {"measurement": "Kallikrein Activity (% of basal activity), Mean", "setting": "3 mpk, Day 161", "value": "6 % of basal activity"},
      {"measurement": "Kallikrein Activity (% of basal activity), Mean", "setting": "3 mpk, Day 180", "value": "4.7 % of basal activity"},
      {"measurement": "Kallikrein Activity (% of basal activity), Mean", "setting": "3 mpk, Day 238", "value": "4.7 % of basal activity"},
      {"measurement": "Kallikrein Activity (% of basal activity), Mean", "setting": "3 mpk, Day 252", "value": "8.2 % of basal activity"},
      {"measurement": "Kallikrein Activity (% of basal activity), Mean", "setting": "3 mpk, Day 266", "value": "8.9 % of basal activity"},
      {"measurement": "Kallikrein Activity (% of basal activity), Mean", "setting": "3 mpk, Day 280", "value": "6.8 % of basal activity"},
      {"measurement": "Kallikrein Activity (% of basal activity), Mean", "setting": "3 mpk, Day 294", "value": "7.9 % of basal activity"},
      {"measurement": "Kallikrein Activity (% of basal activity), Mean", "setting": "3 mpk, Day 308", "value": "7.4 % of basal activity"},
      {"measurement": "Kallikrein Activity (% of basal activity), Mean", "setting": "3 mpk, Day 326", "value": "5.5 % of basal activity"},
      {"measurement": "Kallikrein Activity (% of basal activity), Mean", "setting": "3 mpk, Day 333", "value": "6.8 % of basal activity"},
      {"measurement": "Kallikrein Activity (% of basal activity), Mean", "setting": "3 mpk, Day 347", "value": "4.1 % of basal activity"},
      {"measurement": "Kallikrein Activity (% of basal activity), Mean", "setting": "3 mpk, Day 365", "value": "10 % of basal activity"},
      {"measurement": "Kallikrein Activity (% of basal activity), Mean", "setting": "6 mpk, Day 7", "value": "18.2 % of basal activity"},
      {"measurement": "Kallikrein Activity (% of basal activity), Mean", "setting": "6 mpk, Day 14", "value": "5.3 % of basal activity"},
      {"measurement": "Kallikrein Activity (% of basal activity), Mean", "setting": "6 mpk, Day 28", "value": "3.9 % of basal activity"},
      {"measurement": "Kallikrein Activity (% of basal activity), Mean", "setting": "6 mpk, Day 42", "value": "3.6 % of basal activity"},
      {"measurement": "Kallikrein Activity (% of basal activity), Mean", "setting": "6 mpk, Day 56", "value": "4.2 % of basal activity"},
      {"measurement": "Kallikrein Activity (% of basal activity), Mean", "setting": "6 mpk, Day 70", "value": "3.9 % of basal activity"},
      {"measurement": "Kallikrein Activity (% of basal activity), Mean", "setting": "6 mpk, Day 84", "value": "4.7 % of basal activity"},
      {"measurement": "Kallikrein Activity (% of basal activity), Mean", "setting": "6 mpk, Day 105", "value": "4.7 % of basal activity"},
      {"measurement": "Kallikrein Activity (% of basal activity), Mean", "setting": "6 mpk, Day 119", "value": "3 % of basal activity"},
      {"measurement": "Kallikrein Activity (% of basal activity), Mean", "setting": "6 mpk, Day 147", "value": "3 % of basal activity"},
      {"measurement": "Kallikrein Activity (% of basal activity), Mean", "setting": "6 mpk, Day 161", "value": "5.6 % of basal activity"},
      {"measurement": "Kallikrein Activity (% of basal activity), Mean", "setting": "6 mpk, Day 180", "value": "5 % of basal activity"},
      {"measurement": "Kallikrein Activity (% of basal activity), Mean", "setting": "6 mpk, Day 238", "value": "3.2 % of basal activity"},
      {"measurement": "Kallikrein Activity (% of basal activity), Mean", "setting": "6 mpk, Day 252", "value": "3.1 % of basal activity"},
      {"measurement": "Kallikrein Activity (% of basal activity), Mean", "setting": "6 mpk, Day 266", "value": "2.7 % of basal activity"},
      {"measurement": "Kallikrein Activity (% of basal activity), Mean", "setting": "6 mpk, Day 280", "value": "3 % of basal activity"},
      {"measurement": "Kallikrein Activity (% of basal activity), Mean", "setting": "6 mpk, Day 294", "value": "2.9 % of basal activity"},
      {"measurement": "Kallikrein Activity (% of basal activity), Mean", "setting": "6 mpk, Day 308", "value": "3 % of basal activity"},
      {"measurement": "Kallikrein Activity (% of basal activity), Mean", "setting": "6 mpk, Day 326", "value": "3.5 % of basal activity"},
      {"measurement": "Kallikrein Activity (% of basal activity), Mean", "setting": "6 mpk, Day 333", "value": "3.3 % of basal activity"},
      {"measurement": "Kallikrein Activity (% of basal activity), Mean", "setting": "6 mpk, Day 347", "value": "2.9 % of basal activity"},
      {"measurement": "Kallikrein Activity (% of basal activity), Mean", "setting": "6 mpk, Day 365", "value": "3.4 % of basal activity"}
    ]}
  ]
}
